# Measured values published in the supplement of paper PMC10065799, “High-throughput profiling of sequence recognition by tyrosine kinases and SH2 domains using bacterial peptide display” (eLife, 2023).
# Target: Hck (UniProt P08631)
# Test: phosphorylation enrichment, bacterial display (enrichment ratio); higher = better substrate or ligand; peptides without Tyr show the background
# 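Further: 11-residue human phosphosite peptides and single-mutation variants displayed on the E. coli surface, counted by deep sequencing, each peptide's frequency after selection divided by its frequency in the unselected input library; frequency after pTyr selection over input frequency; kinase dosed for 20-30% of maximal phosphorylation in three min.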
# Sequence of Hck (P08631 whole entry, looked up): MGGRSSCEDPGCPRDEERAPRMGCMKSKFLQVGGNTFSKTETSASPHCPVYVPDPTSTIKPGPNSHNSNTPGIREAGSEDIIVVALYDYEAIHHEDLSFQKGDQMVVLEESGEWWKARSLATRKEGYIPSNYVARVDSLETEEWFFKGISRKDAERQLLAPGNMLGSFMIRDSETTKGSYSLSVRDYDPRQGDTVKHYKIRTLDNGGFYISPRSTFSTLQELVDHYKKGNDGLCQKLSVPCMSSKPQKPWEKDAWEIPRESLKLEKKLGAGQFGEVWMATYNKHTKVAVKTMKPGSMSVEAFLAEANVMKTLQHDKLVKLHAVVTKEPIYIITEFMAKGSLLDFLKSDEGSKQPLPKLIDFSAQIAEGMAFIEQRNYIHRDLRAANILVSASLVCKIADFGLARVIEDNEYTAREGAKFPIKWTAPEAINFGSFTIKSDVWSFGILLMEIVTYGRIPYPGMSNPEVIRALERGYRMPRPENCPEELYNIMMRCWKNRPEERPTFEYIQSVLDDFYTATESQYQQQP
row,Sequence,phosphorylation enrichment
1,ESMNIYLQTSP [NAT1_Y208_T207I],1.05
2,LQLLGDRPVFS [CHST6_Y358_Y358D_YF],0.41
3,HLVLNYGVCIC [JAK2_Y613_V617I],0.484
4,CKSVHYDLVFL [COL22A1_Y37],0.632
5,SREALYNEMDP [CACNA1A_Y794],0.834
6,QSSALYEDHYL [ASS1_Y83_R86H],1.58
7,YAKSVYWENTL [NUP107_Y296],0.674
8,SLEKSYELPDG [ACTA1_Y242],0.534
9,APGDAYGDAGF [SYP_Y250_YF],0.566
10,SILAVYSKDNY [PANK2_Y400],0.875
11,NKEAIYSGYIR [SMCHD1_Y283],10.4
12,QGLRLYRTHLA [BTK_Y617_P619T],0.317
13,DCVRMYELVHR [GLE1_Y135_G130D],2.57
14,LIHLHYIRRDY [BBS4_Y43_K46R],0.47
15,ALAHKYQGGGG [HBB_Y146_H147Q],0.375
16,SSPVLYLSPET [TJP1_Y931_P930L],0.626
17,LESTLYESSVV [TRPV4_Y91],1.6

row,Sequence,phosphorylation enrichment
1,EYITRYIDSLK [PSMA7_Y110_A112D],0.558
2,EEGNPYFSGAR [MCCC2_Y520_S523G_YF],0.864
3,GIVKAYFVRAR [AIPL1_Y267_YF],0.503
4,RETLTYAQAQR [BRD1_Y33],0.746
5,VRSVDYVLFRS [FAM189B_Y361],0.528
6,SVVVPYEPPGV [TP53_Y220_E224G],0.471
7,IKGIRYLHHRG [GUCY2D_Y656],0.344
8,VNKGGYFSVNL [C3orf33_Y164_S160N],0.411
9,GEEIKYTLWLS [OTC_Y55_M56T],0.529
10,ILTLKYPIKHG [ACTA1_Y71_E74K],0.349
11,REAAAYPHGRL [AGXT_Y297_L298P],0.404
12,RMLRKYQELMS [KRT74_Y425_E424K],0.43
13,FAKSVYWENTL [NUP107_Y296_YF],0.857
14,SIKDKYVTAFY [KCNH2_Y611_L615F],0.414
15,QSHKVYFQHLL [POR_Y604_V605F],0.598
16,TTPGPHRSIYF [MPG_Y71_Y71H],0.411

# Tested on: c-Abl (mouse)
# Test: as above
row,Sequence,phosphorylation enrichment
1,ESMNIYLQTSP [NAT1_Y208_T207I],0.812
2,LQLLGDRPVFS [CHST6_Y358_Y358D_YF],0.673
3,HLVLNYGVCIC [JAK2_Y613_V617I],1.52
4,CKSVHYDLVFL [COL22A1_Y37],0.93
5,SREALYNEMDP [CACNA1A_Y794],0.852
6,QSSALYEDHYL [ASS1_Y83_R86H],0.734
7,YAKSVYWENTL [NUP107_Y296],0.728
8,SLEKSYELPDG [ACTA1_Y242],0.712
9,APGDAYGDAGF [SYP_Y250_YF],0.565
10,SILAVYSKDNY [PANK2_Y400],0.653
11,NKEAIYSGYIR [SMCHD1_Y283],24.3
12,QGLRLYRTHLA [BTK_Y617_P619T],0.448
13,DCVRMYELVHR [GLE1_Y135_G130D],1.03
14,LIHLHYIRRDY [BBS4_Y43_K46R],0.524
15,ALAHKYQGGGG [HBB_Y146_H147Q],0.565
16,SSPVLYLSPET [TJP1_Y931_P930L],1.61
17,LESTLYESSVV [TRPV4_Y91],1.45

row,Sequence,phosphorylation enrichment
1,EYITRYIDSLK [PSMA7_Y110_A112D],0.498
2,EEGNPYFSGAR [MCCC2_Y520_S523G_YF],0.687
3,GIVKAYFVRAR [AIPL1_Y267_YF],0.669
4,RETLTYAQAQR [BRD1_Y33],0.963
5,VRSVDYVLFRS [FAM189B_Y361],0.516
6,SVVVPYEPPGV [TP53_Y220_E224G],0.494
7,IKGIRYLHHRG [GUCY2D_Y656],0.497
8,VNKGGYFSVNL [C3orf33_Y164_S160N],0.688
9,GEEIKYTLWLS [OTC_Y55_M56T],0.873
10,ILTLKYPIKHG [ACTA1_Y71_E74K],0.367
11,REAAAYPHGRL [AGXT_Y297_L298P],0.415
12,RMLRKYQELMS [KRT74_Y425_E424K],0.455
13,FAKSVYWENTL [NUP107_Y296_YF],0.638
14,SIKDKYVTAFY [KCNH2_Y611_L615F],0.391
15,QSHKVYFQHLL [POR_Y604_V605F],0.991
16,TTPGPHRSIYF [MPG_Y71_Y71H],0.538

# Target: Fyn (UniProt P06241)
# Sequence (P06241 whole entry, looked up): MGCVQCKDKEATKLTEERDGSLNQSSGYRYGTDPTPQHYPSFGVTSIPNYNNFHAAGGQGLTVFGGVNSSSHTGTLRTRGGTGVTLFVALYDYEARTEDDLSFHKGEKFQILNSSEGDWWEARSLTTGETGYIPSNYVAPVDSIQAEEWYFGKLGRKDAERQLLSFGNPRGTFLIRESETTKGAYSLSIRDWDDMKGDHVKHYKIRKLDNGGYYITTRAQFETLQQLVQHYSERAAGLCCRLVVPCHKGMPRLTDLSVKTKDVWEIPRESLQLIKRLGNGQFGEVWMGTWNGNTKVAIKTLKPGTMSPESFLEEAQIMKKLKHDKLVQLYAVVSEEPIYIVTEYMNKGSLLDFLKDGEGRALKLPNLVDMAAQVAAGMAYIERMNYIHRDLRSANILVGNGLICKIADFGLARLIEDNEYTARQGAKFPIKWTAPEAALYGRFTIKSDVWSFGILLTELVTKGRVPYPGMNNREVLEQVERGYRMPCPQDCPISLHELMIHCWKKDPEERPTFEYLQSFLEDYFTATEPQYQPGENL
# Test: as above
row,Sequence,phosphorylation enrichment
1,ESMNIYLQTSP [NAT1_Y208_T207I],0.847
2,LQLLGDRPVFS [CHST6_Y358_Y358D_YF],0.356
3,HLVLNYGVCIC [JAK2_Y613_V617I],0.551
4,CKSVHYDLVFL [COL22A1_Y37],0.554
5,SREALYNEMDP [CACNA1A_Y794],0.685
6,QSSALYEDHYL [ASS1_Y83_R86H],0.904
7,YAKSVYWENTL [NUP107_Y296],0.61
8,SLEKSYELPDG [ACTA1_Y242],0.49
9,APGDAYGDAGF [SYP_Y250_YF],0.494
10,SILAVYSKDNY [PANK2_Y400],0.756
11,NKEAIYSGYIR [SMCHD1_Y283],11.3
12,QGLRLYRTHLA [BTK_Y617_P619T],0.339
13,DCVRMYELVHR [GLE1_Y135_G130D],0.754
14,LIHLHYIRRDY [BBS4_Y43_K46R],0.389
15,ALAHKYQGGGG [HBB_Y146_H147Q],0.451
16,SSPVLYLSPET [TJP1_Y931_P930L],0.534
17,LESTLYESSVV [TRPV4_Y91],1.26

row,Sequence,phosphorylation enrichment
1,EYITRYIDSLK [PSMA7_Y110_A112D],0.504
2,EEGNPYFSGAR [MCCC2_Y520_S523G_YF],0.637
3,GIVKAYFVRAR [AIPL1_Y267_YF],0.488
4,RETLTYAQAQR [BRD1_Y33],0.584
5,VRSVDYVLFRS [FAM189B_Y361],0.455
6,SVVVPYEPPGV [TP53_Y220_E224G],0.544
7,IKGIRYLHHRG [GUCY2D_Y656],0.415
8,VNKGGYFSVNL [C3orf33_Y164_S160N],0.456
9,GEEIKYTLWLS [OTC_Y55_M56T],0.418
10,ILTLKYPIKHG [ACTA1_Y71_E74K],0.431
11,REAAAYPHGRL [AGXT_Y297_L298P],0.274
12,RMLRKYQELMS [KRT74_Y425_E424K],0.509
13,FAKSVYWENTL [NUP107_Y296_YF],0.768
14,SIKDKYVTAFY [KCNH2_Y611_L615F],0.428
15,QSHKVYFQHLL [POR_Y604_V605F],0.473
16,TTPGPHRSIYF [MPG_Y71_Y71H],0.359

# Target: MERTK (UniProt Q12866)
# Sequence (Q12866 whole entry, looked up): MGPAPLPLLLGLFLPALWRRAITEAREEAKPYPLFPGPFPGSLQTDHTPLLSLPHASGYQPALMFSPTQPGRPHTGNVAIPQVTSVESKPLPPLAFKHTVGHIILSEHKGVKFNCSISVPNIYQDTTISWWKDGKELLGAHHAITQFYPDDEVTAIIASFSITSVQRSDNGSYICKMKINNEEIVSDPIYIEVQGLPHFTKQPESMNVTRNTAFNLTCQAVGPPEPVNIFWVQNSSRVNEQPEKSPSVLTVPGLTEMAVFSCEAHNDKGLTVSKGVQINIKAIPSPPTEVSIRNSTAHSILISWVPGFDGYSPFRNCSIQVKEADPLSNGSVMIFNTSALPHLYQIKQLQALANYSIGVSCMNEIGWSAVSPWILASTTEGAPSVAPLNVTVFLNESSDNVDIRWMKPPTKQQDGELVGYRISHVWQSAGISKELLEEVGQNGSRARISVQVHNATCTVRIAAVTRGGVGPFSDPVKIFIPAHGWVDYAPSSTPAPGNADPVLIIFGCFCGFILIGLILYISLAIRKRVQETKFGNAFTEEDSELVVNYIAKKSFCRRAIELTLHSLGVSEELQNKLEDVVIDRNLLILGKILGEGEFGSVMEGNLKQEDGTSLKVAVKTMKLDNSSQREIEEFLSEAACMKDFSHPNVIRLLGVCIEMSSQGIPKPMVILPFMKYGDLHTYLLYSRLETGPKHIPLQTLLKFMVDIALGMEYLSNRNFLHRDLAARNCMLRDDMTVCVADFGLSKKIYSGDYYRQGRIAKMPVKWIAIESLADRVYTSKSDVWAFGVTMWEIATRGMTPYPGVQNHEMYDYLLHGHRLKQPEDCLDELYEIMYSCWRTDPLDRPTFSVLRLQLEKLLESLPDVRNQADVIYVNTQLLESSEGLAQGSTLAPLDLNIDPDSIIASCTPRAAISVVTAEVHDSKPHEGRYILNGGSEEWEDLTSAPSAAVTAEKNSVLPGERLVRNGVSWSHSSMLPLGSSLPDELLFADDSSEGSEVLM
# Test: as above
row,Sequence,phosphorylation enrichment
1,ESMNIYLQTSP [NAT1_Y208_T207I],0.618
2,LQLLGDRPVFS [CHST6_Y358_Y358D_YF],0.388
3,HLVLNYGVCIC [JAK2_Y613_V617I],0.535
4,CKSVHYDLVFL [COL22A1_Y37],1.56
5,SREALYNEMDP [CACNA1A_Y794],2.36
6,QSSALYEDHYL [ASS1_Y83_R86H],1.33
7,YAKSVYWENTL [NUP107_Y296],0.526
8,SLEKSYELPDG [ACTA1_Y242],0.467
9,APGDAYGDAGF [SYP_Y250_YF],0.426
10,SILAVYSKDNY [PANK2_Y400],0.588
11,NKEAIYSGYIR [SMCHD1_Y283],9.45
12,QGLRLYRTHLA [BTK_Y617_P619T],0.333
13,DCVRMYELVHR [GLE1_Y135_G130D],3.03
14,LIHLHYIRRDY [BBS4_Y43_K46R],0.524
15,ALAHKYQGGGG [HBB_Y146_H147Q],0.588
16,SSPVLYLSPET [TJP1_Y931_P930L],0.782
17,LESTLYESSVV [TRPV4_Y91],1.21

row,Sequence,phosphorylation enrichment
1,EYITRYIDSLK [PSMA7_Y110_A112D],0.395
2,EEGNPYFSGAR [MCCC2_Y520_S523G_YF],0.444
3,GIVKAYFVRAR [AIPL1_Y267_YF],0.512
4,RETLTYAQAQR [BRD1_Y33],0.529
5,VRSVDYVLFRS [FAM189B_Y361],0.44
6,SVVVPYEPPGV [TP53_Y220_E224G],0.485
7,IKGIRYLHHRG [GUCY2D_Y656],0.376
8,VNKGGYFSVNL [C3orf33_Y164_S160N],0.412
9,GEEIKYTLWLS [OTC_Y55_M56T],0.512
10,ILTLKYPIKHG [ACTA1_Y71_E74K],0.344
11,REAAAYPHGRL [AGXT_Y297_L298P],0.32
12,RMLRKYQELMS [KRT74_Y425_E424K],0.485
13,FAKSVYWENTL [NUP107_Y296_YF],0.588
14,SIKDKYVTAFY [KCNH2_Y611_L615F],0.358
15,QSHKVYFQHLL [POR_Y604_V605F],0.725
16,TTPGPHRSIYF [MPG_Y71_Y71H],0.479
